Experimental data: publication PMC3005950

What was measured:
[1] = target: IL-7 receptor alpha chain extracellular domain, glycosylated, IL-7Ralpha (CHO) (UniProt P16871); test: SPR; conditions: pH 7.4, 298 K, 10 mM HEPES (pH 7.4)
[2] = target: IL-7 receptor alpha chain extracellular domain, nonglycosylated, IL-7Ralpha (EC) (UniProt P16871); test: SPR; conditions: pH 7.4, 298 K, 10 mM HEPES (pH 7.4)
[3] = target: IL-7Ralpha ECD (Homo sapiens) (UniProt P16871); conditions: cited from earlier work

Substance | ΔG^o ([1]; 50 mM NaCl) [kcal/mol] | ΔG^o ([1]; 1 M NaCl) [kcal/mol] | ΔG^o ([2]; 50 mM NaCl) [kcal/mol] | k−1 ([2]; 300 mM NaCl) [s⁻¹] | ΔG^o ([2]; 300 mM NaCl) [kcal/mol] | Kd [3] [µM]
Interleukin-7 (IL-7) | -11.8 | -8.33 | -7.72 | 0.121 | -4.68 | 
IL-7 (from UniProt P13232) |  |  |  |  |  | 0.06
